From article PMC7021683, “RNA sequence and length contribute to RNA-induced conformational change of TLS/FUS”

Experiments:
[1] = molecular target: T1, MBP-BFP-TLS-GFP-6xHis (TLS/FUS) (UniProt P35637 1-526); assay: FRET; Anisotropy: 5 mM Tris-HCl pH 7.6, 25 mM NaCl, 0.1% CHAPS, 2.5 mM glucose, 0.5 mM DTT, 25 C, 100 nM TAMRA-RNA; FRET buffer not in material; details: protein: recombinant, tags: N-term MBP, TagBFP, C-term TagGFP2, 6xHis
[2] = molecular target: T1, MBP-BFP-TLS-GFP-6xHis (TLS/FUS); assay: as above; details: protein: recombinant; tags: N-term MBP, TagBFP; C-term TagGFP2, 6xHis
[3] = molecular target: T1, MBP-BFP-TLS-GFP-6xHis (TLS/FUS); assay: fluorescence anisotropy; 100 nM RNA; Anisotropy: 5 mM Tris-HCl pH 7.6, 25 mM NaCl, 0.1% CHAPS, 2.5 mM glucose, 0.5 mM DTT, 25 C, 100 nM TAMRA-RNA; FRET buffer not in material; details: protein: recombinant; tags: N-term MBP, TagBFP; C-term TagGFP2, 6xHis; label: TAMRA
[4] = molecular target: T1, MBP-BFP-TLS-GFP-6xHis (TLS/FUS); assay: FRET; Anisotropy: 5 mM Tris-HCl pH 7.6, 25 mM NaCl, 0.1% CHAPS, 2.5 mM glucose, 0.5 mM DTT, 25 C, 100 nM TAMRA-RNA; FRET buffer not in material; details: protein: recombinant; tags: N-term MBP, TagBFP; C-term TagGFP2, 6xHis; remark: listed apart in the source

T1 sequence (P35637 whole entry): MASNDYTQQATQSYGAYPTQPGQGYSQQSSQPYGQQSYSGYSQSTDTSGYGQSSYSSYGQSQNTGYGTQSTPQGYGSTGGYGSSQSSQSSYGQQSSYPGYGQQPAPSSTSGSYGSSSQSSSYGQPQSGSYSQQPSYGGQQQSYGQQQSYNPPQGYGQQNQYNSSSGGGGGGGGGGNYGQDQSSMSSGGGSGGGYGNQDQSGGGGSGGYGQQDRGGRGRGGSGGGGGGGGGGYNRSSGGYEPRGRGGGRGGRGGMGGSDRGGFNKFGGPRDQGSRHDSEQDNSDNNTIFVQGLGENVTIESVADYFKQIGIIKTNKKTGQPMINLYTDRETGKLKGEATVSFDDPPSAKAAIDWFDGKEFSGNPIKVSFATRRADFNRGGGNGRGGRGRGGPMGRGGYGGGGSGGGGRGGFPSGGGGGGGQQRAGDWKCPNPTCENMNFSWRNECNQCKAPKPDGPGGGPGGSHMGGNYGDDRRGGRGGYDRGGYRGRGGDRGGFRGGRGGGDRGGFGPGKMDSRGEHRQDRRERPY

GUUAAGAGGGUAC (ssRNA) [R13 (5'-pncRNA)]
binding signal [1]: 0.0663 ± 0.0091 |dE| FRET

GUUAAGAGGGUA (ssRNA) [R12]
binding result [2]: binds

GAGGGU (ssRNA) [R6]
binding result [2]: binds

CGGUGGUUUGAUGACACUG (structured_RNA) [R19 (3'-pncRNA)]
binding signal ([1]; stem-loop): 0.055 ± 0.0099 |dE| FRET

UUUUUUUUUUUUUUUUUUUUUUUUUUUUUUU (ssRNA) [TAMRA-U31]
binding result [3]: binds

GTTAAGAGGGTAC (ssDNA) [D13]
binding signal [4]: 0.0175 ± 0.0018 |dE| FRET

CGGTGGTTTGATGACACTG (ssDNA) [D19]
binding signal [4]: 0.0309 ± 0.0025 |dE| FRET

GTTAAGAGGGTACGGTGGTTTGATGACACTG (ssDNA) [D31]
binding signal [4]: 0.0594 ± 0.0039 |dE| FRET
